Target: T1, Ostreolysin A6 (Pleurotus ostreatus, UniProt P83467 1-138)
T1 sequence: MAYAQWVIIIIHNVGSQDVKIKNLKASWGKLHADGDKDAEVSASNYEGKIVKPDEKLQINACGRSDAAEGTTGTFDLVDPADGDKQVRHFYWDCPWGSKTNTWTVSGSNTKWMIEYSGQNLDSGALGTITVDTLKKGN
Assay: cell-based or functional assay

B1: Δ48PlyB (pleurotolysin B) (domain or fragment, Pleurotus ostreatus, UniProt Q5W9E8 49-523, looked up)
chain: SQAGDTLNDVIQDPTRRNKLINDNNLLKGIIMGRDGPVPSSRELIVRPDTLRAIINNRATIETTTMEAEFTETLMESNYNSASVKVSAPFITANSEYSESSSFKNTETEKSMYTSSRYLFPQGRIDFTTPDSGFDDVIKLSPQFTSGVQAALAKATGTEKREALQNLFQEYGHVFRTKVHIGGVLSAHTMETFSRSENETEVKQDVKAGLEGAVKGWGGGATAGHGNTQGTITTSQNRKLNVKYIVNGGDYTKIQNTEEWVASTNQSEHWRVIEVTEVTAVADLLPQPIRGQVKDLLKPLLGKWVDVEKVPGLESLPVSVYRPKGAIPAGWFWLGDTADASKALLVKPTLPARSGRNPALTSLHQGSGMTEQPFVDLPQYQYLSTYFGSFAHDTPPGSTLRGLRPDHVLPGRYEMHGDTISTAVYVTRPVDVPFPEDECFDLKSLVRVKLPGSGNPPKPRSALKKSMVLFDSGEK
  hazard ratio against buffer, Kaplan-Meier survival of Colorado potato beetle larvae on OlyA6/PlyB-treated leaf discs: 3.5
